Laboratory results: article PMC10397247

Columns and labels:
[1] = target: T1, P11; experiment: two-hybrid library CC1;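 note: natural log of median RNA to DNA barcode read ratio; higher means stronger binding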
T1 chain: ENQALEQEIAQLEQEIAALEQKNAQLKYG

[2] = target: T2, P12; experiment: two-hybrid library CC1; conditions: mean of both orientations;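 note: natural log of median RNA to DNA barcode read ratio; higher means stronger binding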
T2 chain: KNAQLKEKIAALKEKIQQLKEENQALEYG

[3] = target: T3, P3; experiment: two-hybrid library CC1; conditions: mean of both orientations;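 note: natural log of median RNA to DNA barcode read ratio; higher means stronger binding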
T3 chain: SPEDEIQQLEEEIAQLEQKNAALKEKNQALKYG

[4] = target: T4, P3mS; experiment: two-hybrid library CC1; conditions: mean of both orientations;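 note: natural log of median RNA to DNA barcode read ratio; higher means stronger binding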
T4 chain: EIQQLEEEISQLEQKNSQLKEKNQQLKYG

[5] = target: T5, P4; experiment: two-hybrid library CC1; conditions: mean of both orientations;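 note: natural log of median RNA to DNA barcode read ratio; higher means stronger binding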
T5 chain: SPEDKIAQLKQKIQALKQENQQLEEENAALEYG

[6] = target: T6, P4mS; experiment: two-hybrid library CC1; conditions: mean of both orientations;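 note: natural log of median RNA to DNA barcode read ratio; higher means stronger binding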
T6 chain: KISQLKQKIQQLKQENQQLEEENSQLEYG

[7] = target: T7, P5SC1; experiment: two-hybrid library CC1; conditions: mean of both orientations
T7 chain: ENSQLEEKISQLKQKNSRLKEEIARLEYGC

[8] = target: T8, P5SC2; experiment: two-hybrid library CC1; conditions: mean of both orientations
T8 chain: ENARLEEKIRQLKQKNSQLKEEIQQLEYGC

[9] = target: T9, P5; experiment: two-hybrid library CC1; conditions: mean of both orientations
T9 chain: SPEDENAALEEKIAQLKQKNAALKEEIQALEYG

[10] = target: T10, P5mS; experiment: two-hybrid library CC1; conditions: mean of both orientations
T10 chain: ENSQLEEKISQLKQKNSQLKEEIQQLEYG

[11] = target: T11, P6SC1; experiment: two-hybrid library CC1; conditions: mean of both orientations
T11 chain: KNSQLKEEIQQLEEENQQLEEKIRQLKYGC

[12] = target: T12, P6SC2; experiment: two-hybrid library CC1; conditions: mean of both orientations
T12 chain: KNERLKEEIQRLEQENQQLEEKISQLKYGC

[13] = target: T13, P6; experiment: two-hybrid library CC1; conditions: mean of both orientations
T13 chain: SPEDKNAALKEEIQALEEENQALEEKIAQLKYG

[14] = target: T14, P6mS; experiment: two-hybrid library CC1; conditions: mean of both orientations
T14 chain: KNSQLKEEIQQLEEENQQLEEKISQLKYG

[15] = target: T15, P7; experiment: two-hybrid library CC1; conditions: mean of both orientations
T15 chain: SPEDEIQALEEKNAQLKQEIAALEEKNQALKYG

[16] = target: T16, P7mS; experiment: two-hybrid library CC1; conditions: mean of both orientations
T16 chain: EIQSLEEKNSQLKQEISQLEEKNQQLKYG

[17] = target: T17, P8; experiment: two-hybrid library CC1; conditions: mean of both orientations
T17 chain: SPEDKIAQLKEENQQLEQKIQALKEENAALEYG

[18] = target: T18, P8mS; experiment: two-hybrid library CC1; conditions: mean of both orientations
T18 chain: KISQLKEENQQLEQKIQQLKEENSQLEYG

[19] = target: T19, P9; experiment: two-hybrid library CC1; conditions: mean of both orientations
T19 chain: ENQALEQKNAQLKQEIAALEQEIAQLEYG

[20] = target: T20, 4H1650-AA; experiment: two-hybrid library CCmax
T20 chain: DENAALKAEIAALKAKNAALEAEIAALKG

[21] = target: T21, 4H175-AA; experiment: two-hybrid library CCmax; conditions: mean of both orientations
T21 chain: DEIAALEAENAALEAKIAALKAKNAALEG

[22] = target: T22, 4H1765-AA; experiment: two-hybrid library CCmax; conditions: mean of both orientations
T22 chain: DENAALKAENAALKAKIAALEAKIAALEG

[23] = target: T23, 4H1821-AA; experiment: two-hybrid library CCmax
T23 chain: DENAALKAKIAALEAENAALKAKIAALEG

[24] = target: T24, 4H1828-AA; experiment: two-hybrid library CCmax; conditions: mean of both orientations
T24 chain: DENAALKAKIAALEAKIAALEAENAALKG

[25] = target: T25, 4H1930-AA; experiment: two-hybrid library CCmax; conditions: mean of both orientations
T25 chain: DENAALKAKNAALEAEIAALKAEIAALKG

[26] = target: T26, 4H2124-AA; experiment: two-hybrid library CCmax; conditions: mean of both orientations
T26 chain: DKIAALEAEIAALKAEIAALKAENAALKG

[27] = target: T27, 4H2165-AA; experiment: two-hybrid library CCmax; conditions: mean of both orientations
T27 chain: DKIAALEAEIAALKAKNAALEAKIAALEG

[28] = target: T28, 4H2253-AA; experiment: two-hybrid library CCmax; conditions: mean of both orientations
T28 chain: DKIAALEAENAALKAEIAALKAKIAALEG

[29] = target: T29, 4H2330-AA; experiment: two-hybrid library CCmax; conditions: mean of both orientations
T29 chain: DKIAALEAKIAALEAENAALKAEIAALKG

[30] = target: T30, 4H2343-AA; experiment: two-hybrid library CCmax; conditions: mean of both orientations
T30 chain: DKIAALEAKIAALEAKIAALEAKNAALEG

[31] = target: T31, 4H2466-AA; experiment: two-hybrid library CCmax; conditions: mean of both orientations
T31 chain: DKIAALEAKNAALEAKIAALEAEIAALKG

[32] = target: T32, 4H249-AA; experiment: two-hybrid library CCmax; conditions: mean of both orientations
T32 chain: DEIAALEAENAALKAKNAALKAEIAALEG

[33] = target: T33, 4H2592-AA; experiment: two-hybrid library CCmax; conditions: mean of both orientations
T33 chain: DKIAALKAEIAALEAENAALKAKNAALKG

[34] = target: T34, 4H2732-AA; experiment: two-hybrid library CCmax; conditions: mean of both orientations
T34 chain: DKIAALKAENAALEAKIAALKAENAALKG

[35] = target: T35, 4H2774-AA; experiment: two-hybrid library CCmax; conditions: mean of both orientations
T35 chain: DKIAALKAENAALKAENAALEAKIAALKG

[36] = target: T36, 4H2931-AA; experiment: two-hybrid library CCmax; conditions: mean of both orientations
T36 chain: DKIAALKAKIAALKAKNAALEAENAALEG

[37] = target: T37, 4H3001-AA; experiment: two-hybrid library CCmax; conditions: mean of both orientations
T37 chain: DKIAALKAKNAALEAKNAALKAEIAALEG

[38] = target: T38, 4H3015-AA; experiment: two-hybrid library CCmax; conditions: mean of both orientations
T38 chain: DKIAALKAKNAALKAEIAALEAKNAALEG

[39] = target: T39, 4H3073-AA; experiment: two-hybrid library CCmax; conditions: mean of both orientations
T39 chain: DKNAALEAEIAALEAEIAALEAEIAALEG

[40] = target: T40, 4H3438-AA; experiment: two-hybrid library CCmax
T40 chain: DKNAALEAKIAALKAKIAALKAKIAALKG

[41] = target: T41, 4H347-AA; experiment: two-hybrid library CCmax; conditions: mean of both orientations
T41 chain: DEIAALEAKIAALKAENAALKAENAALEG

[42] = target: T42, 4H406-AA; experiment: two-hybrid library CCmax; conditions: mean of both orientations
T42 chain: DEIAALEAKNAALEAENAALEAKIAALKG

[43] = target: T43, 4H452-AA; experiment: two-hybrid library CCmax; conditions: mean of both orientations
T43 chain: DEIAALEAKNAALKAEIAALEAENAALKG

[44] = target: T44, 4H56-AA; experiment: two-hybrid library CCmax; conditions: mean of both orientations
T44 chain: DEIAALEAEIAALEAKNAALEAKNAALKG

[45] = target: T45, 4H_APH; experiment: two-hybrid library CCmax; conditions: mean of both orientations
T45 chain: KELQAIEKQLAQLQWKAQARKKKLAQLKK

[46] = target: T46, 4H_BCR; experiment: two-hybrid library CCmax; conditions: mean of both orientations
T46 chain: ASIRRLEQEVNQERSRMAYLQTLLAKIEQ

[47] = target: 4H_GCN4; experiment: two-hybrid library CCmax
[48] = target: GCN2_T; experiment: two-hybrid library CCmax
[49] = target: T47, 4H1359-bN; experiment: two-hybrid library CCNG1
T47 chain: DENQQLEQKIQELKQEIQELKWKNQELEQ

[50] = target: T48, 4H1393-bN; experiment: two-hybrid library CCNG1
T48 chain: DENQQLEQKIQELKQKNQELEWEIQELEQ

[51] = target: T49, 4H1449-bN; experiment: two-hybrid library CCNG1
T49 chain: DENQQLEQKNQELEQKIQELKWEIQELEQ

[52] = target: T50, 4H1629-bN; experiment: two-hybrid library CCNG1
T50 chain: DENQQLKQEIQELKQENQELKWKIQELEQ

[53] = target: T51, 4H1710-bN; experiment: two-hybrid library CCNG1
T51 chain: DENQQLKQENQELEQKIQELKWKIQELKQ

[54] = target: T52, 4H1804-bN; experiment: two-hybrid library CCNG1
T52 chain: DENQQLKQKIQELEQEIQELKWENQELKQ

[55] = target: T53, 4H1985-bN; experiment: two-hybrid library CCNG1
T53 chain: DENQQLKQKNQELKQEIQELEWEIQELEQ

[56] = target: T54, 4H3129-bN; experiment: two-hybrid library CCNG1
T54 chain: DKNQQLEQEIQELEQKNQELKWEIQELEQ

[57] = target: T55, 4H3172-bN; experiment: two-hybrid library CCNG1
T55 chain: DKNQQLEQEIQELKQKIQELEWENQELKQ

[58] = target: T56, 4H3414-bN; experiment: two-hybrid library CCNG1
T56 chain: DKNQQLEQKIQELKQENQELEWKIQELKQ

[59] = target: T57, 4H3631-bN; experiment: two-hybrid library CCNG1
T57 chain: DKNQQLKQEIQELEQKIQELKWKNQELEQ

[60] = target: T58, 4H3638-bN; experiment: two-hybrid library CCNG1
T58 chain: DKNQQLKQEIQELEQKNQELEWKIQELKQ

[61] = target: T59, 4H3817-bN; experiment: two-hybrid library CCNG1
T59 chain: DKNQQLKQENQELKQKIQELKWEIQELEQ

[62] = target: T60, 4H3974-bN; experiment: two-hybrid library CCNG1
T60 chain: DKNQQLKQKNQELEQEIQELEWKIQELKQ

[63] = target: T61, 4H56-bN; experiment: two-hybrid library CCNG1
T61 chain: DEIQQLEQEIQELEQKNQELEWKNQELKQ

[64] = target: T62, 4H570-bN; experiment: two-hybrid library CCNG1
T62 chain: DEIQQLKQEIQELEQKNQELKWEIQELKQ

[65] = target: T63, 4H584-bN; experiment: two-hybrid library CCNG1
T63 chain: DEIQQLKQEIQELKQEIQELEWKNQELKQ

[66] = target: T64, 4H619-bN; experiment: two-hybrid library CCNG1
T64 chain: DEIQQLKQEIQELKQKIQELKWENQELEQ

[67] = target: T65, 4H850-bN; experiment: two-hybrid library CCNG1
T65 chain: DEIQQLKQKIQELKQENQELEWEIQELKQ

[68] = target: T66, 4H906-bN; experiment: two-hybrid library CCNG1
T66 chain: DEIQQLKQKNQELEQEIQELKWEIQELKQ

Sequence of 4H_GCN4 (chain, as listed by the source): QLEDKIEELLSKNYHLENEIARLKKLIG

B1: P11 (peptide)
chain: ENQALEQEIAQLEQEIAALEQKNAQLKYG
interaction score [1]: -2.71 | interaction score [2]: 0.313 | interaction score [3]: -2.69 | interaction score [4]: -2.8 | interaction score [5]: -0.75 | interaction score [6]: -1.07 | interaction score [7]: -2.59 | interaction score [8]: -2.41 | interaction score [9]: -2.7 | interaction score [10]: -2.74 | interaction score [11]: -2.75 | interaction score [12]: -2.64 | interaction score [13]: -2.83 | interaction score [14]: -2.82 | interaction score [15]: -2.69 | interaction score [16]: -2.62 | interaction score [17]: -2.59 | interaction score [18]: -2.69 | interaction score [19]: -2.25

B2: 4H1650-AA (peptide)
chain: DENAALKAEIAALKAKNAALEAEIAALKG
interaction score [20]: 1.93 | interaction score [21]: -1.43 | interaction score [22]: -1.53 | interaction score [23]: -1.25 | interaction score [24]: -1.48 | interaction score [25]: -1.42 | interaction score [26]: -1.42 | interaction score [27]: -1.3 | interaction score [28]: -1.47 | interaction score [29]: -1.54 | interaction score [30]: -1.44 | interaction score [31]: -1.67 | interaction score [32]: -1.71 | interaction score [33]: -1.61 | interaction score [34]: -0.897 | interaction score [35]: -1.48 | interaction score [36]: -1.59 | interaction score [37]: -1.67 | interaction score [38]: -1.53 | interaction score [39]: -1.16 | interaction score [40]: -1.13 | interaction score [41]: -2.36 | interaction score [42]: -1.61 | interaction score [43]: -1.34 | interaction score [44]: -1.74 | interaction score [45]: -1.42 | interaction score [46]: -1.36 | interaction score [47]: -1.9 | interaction score [48]: -0.999

B3: 4H1359-bN (peptide)
chain: DENQQLEQKIQELKQEIQELKWKNQELEQ
interaction score [49]: -0.688 | interaction score [50]: -0.209 | interaction score [51]: -0.317 | interaction score [52]: -1.24 | interaction score [53]: -0.607 | interaction score [54]: 0.796 | interaction score [55]: -0.294 | interaction score [56]: -0.57 | interaction score [57]: 0.294 | interaction score [58]: -0.131 | interaction score [59]: 0.911 | interaction score [60]: -1.64 | interaction score [61]: -1.14 | interaction score [62]: 1.47 | interaction score [63]: -1.25 | interaction score [64]: -0.803 | interaction score [65]: -0.701 | interaction score [66]: -1.38 | interaction score [67]: -0.294 | interaction score [68]: -1.22
